Starred links: 1 amine or outer side, 2 acyl side, 3 side chain; linkers in the order of their positions; H or OH if unused. Non-standard residues stand in square brackets, D forms with d. *: point of attachment. AC4Abu = α-carboxy-4-aminobutyric acid, O=C(C(CCN[*:1])C(=O)[*:3])[*:2]; Oic = O=C(O)[C@@H]1C[C@@H]2CCCC[C@@H]2N1; Phe(4-Cl) = N[C@@H](Cc1ccc(Cl)cc1)C(=O)O; γGlu = O=C(O)[C@H](CCC(=O)[*:2])N[*:1]; NMeR = CN[C@@H](CCCNC(=N)N)C(=O)O; Tridecanoyl = CCCCCCCCCCCCC(=O)*; Gly(N-CH2CH2OH) = O=C(O)CNCCO; Tle = CC(C)(C)[C@H](N)C(=O)O; Nle = CCCC[C@H](N)C(=O)O; AEEA = NCCOCCOCC(=O)O; βAla = NCCC(=O)O

The results in this text go back to patent publication US10941182 (Amgen, dated 2021).

Sequences and labels used below:
T1: rat APJ receptor (rat, UniProt Q9JHG3 1-377)
T1 sequence (looked up): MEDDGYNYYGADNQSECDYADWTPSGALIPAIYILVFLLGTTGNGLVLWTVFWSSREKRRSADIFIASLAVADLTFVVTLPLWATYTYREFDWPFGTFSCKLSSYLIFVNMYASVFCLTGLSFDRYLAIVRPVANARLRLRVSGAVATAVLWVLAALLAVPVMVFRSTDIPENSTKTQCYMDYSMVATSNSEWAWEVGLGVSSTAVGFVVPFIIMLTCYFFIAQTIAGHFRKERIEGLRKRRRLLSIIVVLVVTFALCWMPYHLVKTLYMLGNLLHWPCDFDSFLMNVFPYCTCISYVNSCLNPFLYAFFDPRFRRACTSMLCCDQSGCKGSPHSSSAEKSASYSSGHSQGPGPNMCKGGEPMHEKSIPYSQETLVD

T2: human APJ receptor (human, UniProt P35414 1-380)
T2 sequence (looked up): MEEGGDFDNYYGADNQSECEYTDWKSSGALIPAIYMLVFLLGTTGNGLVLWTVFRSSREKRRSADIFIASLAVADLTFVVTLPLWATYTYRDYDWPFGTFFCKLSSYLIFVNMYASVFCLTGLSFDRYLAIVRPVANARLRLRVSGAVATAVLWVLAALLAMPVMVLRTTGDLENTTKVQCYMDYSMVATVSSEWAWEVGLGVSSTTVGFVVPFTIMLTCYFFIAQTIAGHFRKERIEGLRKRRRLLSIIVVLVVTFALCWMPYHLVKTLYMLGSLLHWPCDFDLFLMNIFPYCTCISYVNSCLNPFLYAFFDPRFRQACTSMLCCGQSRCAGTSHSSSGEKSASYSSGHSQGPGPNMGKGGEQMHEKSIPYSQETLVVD

B1: Apelin polypeptide SEQ ID NO: 439 (peptide)
peptide: Tridecanoyl-[γGlu][AEEA][AEEA]QRP[NMeR][Tle]SHKG[Oic][Nle]P[Phe(4-Cl)]-OH
SMILES: CCCCCCCCCCCCC(=O)N[C@@H](CCC(=O)NCCOCCOCC(=O)NCCOCCOCC(=O)N[C@@H](CCC(N)=O)C(=O)N[C@@H](CCCNC(=N)N)C(=O)N1CCC[C@H]1C(=O)N(C)[C@@H](CCCNC(=N)N)C(=O)N[C@H](C(=O)N[C@@H](CO)C(=O)N[C@@H](Cc1c[nH]cn1)C(=O)N[C@@H](CCCCN)C(=O)NCC(=O)N1[C@H](C(=O)N[C@@H](CCCC)C(=O)N2CCC[C@H]2C(=O)N[C@@H](Cc2ccc(Cl)cc2)C(=O)O)C[C@@H]2CCCC[C@@H]21)C(C)(C)C)C(=O)O
B2: Apelin polypeptide SEQ ID NO: 423 (peptide)
peptide: Tridecanoyl-[AC4Abu][AEEA][AEEA]QRP[NMeR]LS[βAla]KGP[Nle]P[Phe(4-Cl)]-OH
SMILES: CCCCCCCCCCCCC(=O)NCCC(C(=O)O)C(=O)NCCOCCOCC(=O)NCCOCCOCC(=O)N[C@@H](CCC(N)=O)C(=O)N[C@@H](CCCNC(=N)N)C(=O)N1CCC[C@H]1C(=O)N(C)[C@@H](CCCNC(=N)N)C(=O)N[C@@H](CC(C)C)C(=O)N[C@@H](CO)C(=O)NCCC(=O)N[C@@H](CCCCN)C(=O)NCC(=O)N1CCC[C@H]1C(=O)N[C@@H](CCCC)C(=O)N1CCC[C@H]1C(=O)N[C@@H](Cc1ccc(Cl)cc1)C(=O)O
B3: Apelin polypeptide SEQ ID NO: 467 (peptide)
peptide: Tridecanoyl-[γGlu][AEEA][AEEA]QRP[NMeR]L[Gly(N-CH2CH2OH)]HKGP[Nle]P[Phe(4-Cl)]-OH
SMILES: CCCCCCCCCCCCC(=O)N[C@@H](CCC(=O)NCCOCCOCC(=O)NCCOCCOCC(=O)N[C@@H](CCC(N)=O)C(=O)N[C@@H](CCCNC(=N)N)C(=O)N1CCC[C@H]1C(=O)N(C)[C@@H](CCCNC(=N)N)C(=O)N[C@@H](CC(C)C)C(=O)N(CCO)CC(=O)N[C@@H](Cc1c[nH]cn1)C(=O)N[C@@H](CCCCN)C(=O)NCC(=O)N1CCC[C@H]1C(=O)N[C@@H](CCCC)C(=O)N1CCC[C@H]1C(=O)N[C@@H](Cc1ccc(Cl)cc1)C(=O)O)C(=O)O
B4: Apelin polypeptide SEQ ID NO: 464 (peptide)
peptide: Tridecanoyl-[γGlu][AEEA][AEEA]QRP[NMeR]L[βAla]HKGP[Nle]P[Phe(4-Cl)]-OH
SMILES: CCCCCCCCCCCCC(=O)N[C@@H](CCC(=O)NCCOCCOCC(=O)NCCOCCOCC(=O)N[C@@H](CCC(N)=O)C(=O)N[C@@H](CCCNC(=N)N)C(=O)N1CCC[C@H]1C(=O)N(C)[C@@H](CCCNC(=N)N)C(=O)N[C@@H](CC(C)C)C(=O)NCCC(=O)N[C@@H](Cc1c[nH]cn1)C(=O)N[C@@H](CCCCN)C(=O)NCC(=O)N1CCC[C@H]1C(=O)N[C@@H](CCCC)C(=O)N1CCC[C@H]1C(=O)N[C@@H](Cc1ccc(Cl)cc1)C(=O)O)C(=O)O

The target of one test is T1, rat APJ receptor. The experiment in a line: cell-based or functional assay.
As to B1, the “EC50 Rat APJ Receptor (GTPγS assay)” value is 3.21 nM.

On to B2, for which the “EC50 Rat APJ Receptor (GTPγS assay)” value amounted to 1.18 nM.

For the molecule XXXQRPRLXHKGPXPF ({TDA}[AC4Abu][Aeea][Aeea]QRP[NMeArg]L[Pra]HKGP[Nle]P[4-Cl-F]{COOH}) [Apelin polypeptide SEQ ID NO: 450], the “EC50 Rat APJ Receptor (GTPγS assay)” value amounted to 0.313 nM.

Consider B3, for which the “EC50 Rat APJ Receptor (GTPγS assay)” value was 0.521 nM.

Turning to B4, the “EC50 Rat APJ Receptor (GTPγS assay)” value amounted to 0.377 nM.

Another test addresses T2, human APJ receptor. The experiment in a line: cell-based or functional assay.
For the molecule B1, the “EC50 Human APJ Receptor (GTPγS assay)” value is 2.15 nM.

Regarding B2, the “EC50 Human APJ Receptor (GTPγS assay)” value worked out at 0.645 nM.

With XXXQRPRLXHKGPXPF ({TDA}[AC4Abu][Aeea][Aeea]QRP[NMeArg]L[Pra]HKGP[Nle]P[4-Cl-F]{COOH}) [Apelin polypeptide SEQ ID NO: 450], the “EC50 Human APJ Receptor (GTPγS assay)” value amounted to 0.132 nM.

On to B3, for which the “EC50 Human APJ Receptor (GTPγS assay)” value is 0.129 nM.

For the molecule B4, the “EC50 Human APJ Receptor (GTPγS assay)” value was 0.0542 nM.
